Measured values published in patent US20250027945A1.

Tests used:
[1] = molecular target: human RYK on the surface of human tumor cell lines (human) (UniProt P34925); assay: flow cytometry, REH cells (ALL), isotype matched control mAb, equal amount
[2] = molecular target: human RYK on the surface of human tumor cell lines (human) (UniProt P34925); assay: flow cytometry, EW36 cells (NHL), isotype matched control mAb, equal amount
[3] = molecular target: human RYK on the surface of human tumor cell lines (human) (UniProt P34925); assay: flow cytometry, K562 cells (CML), isotype matched control mAb, equal amount
[4] = molecular target: human RYK on the surface of human tumor cell lines (human) (UniProt P34925); assay: flow cytometry, MEC1 cells (CLL), isotype matched control mAb, equal amount
[5] = molecular target: human RYK on the surface of human tumor cell lines (human) (UniProt P34925); assay: flow cytometry, A549 cells (lung), isotype matched control mAb, equal amount
[6] = molecular target: human RYK on the surface of human tumor cell lines (human) (UniProt P34925); assay: flow cytometry, H292 cells (lung), isotype matched control mAb, equal amount
[7] = molecular target: human RYK on the surface of human tumor cell lines (human) (UniProt P34925); assay: flow cytometry, H446 cells (lung), isotype matched control mAb, equal amount
[8] = molecular target: human RYK on the surface of human tumor cell lines (human) (UniProt P34925); assay: flow cytometry, H460 cells (lung), isotype matched control mAb, equal amount
[9] = molecular target: human RYK on the surface of human tumor cell lines (human) (UniProt P34925); assay: flow cytometry, NALM6 cells (ALL), isotype matched control mAb, equal amount
[10] = molecular target: human RYK on the surface of human tumor cell lines (human) (UniProt P34925); assay: flow cytometry, HT144 cells (skin), isotype matched control mAb, equal amount
[11] = molecular target: human RYK on the surface of human tumor cell lines (human) (UniProt P34925); assay: flow cytometry, HT29 cells (colon), isotype matched control mAb, equal amount
[12] = molecular target: human RYK on the surface of human tumor cell lines (human) (UniProt P34925); assay: flow cytometry, HS683 cells (brain), isotype matched control mAb, equal amount
[13] = molecular target: human RYK on the surface of human tumor cell lines (human) (UniProt P34925); assay: flow cytometry, JEKO cells (mantle), isotype matched control mAb, equal amount
[14] = molecular target: human RYK on the surface of human tumor cell lines (human) (UniProt P34925); assay: flow cytometry, MCF7 cells (breast), isotype matched control mAb, equal amount
[15] = molecular target: human RYK on the surface of human tumor cell lines (human) (UniProt P34925); assay: flow cytometry, MINO cells (mantle), isotype matched control mAb, equal amount
[16] = molecular target: human RYK on the surface of human tumor cell lines (human) (UniProt P34925); assay: flow cytometry, SW620 cells (colon), isotype matched control mAb, equal amount
[17] = molecular target: human RYK on the surface of human tumor cell lines (human) (UniProt P34925); assay: flow cytometry, SW948 cells (colon), isotype matched control mAb, equal amount
[18] = molecular target: human RYK on the surface of human tumor cell lines (human) (UniProt P34925); assay: flow cytometry, T24 cells (bladder), isotype matched control mAb, equal amount
[19] = molecular target: human RYK on the surface of human tumor cell lines (human) (UniProt P34925); assay: flow cytometry, BT549 cells (breast), isotype matched control mAb, equal amount
[20] = molecular target: human RYK on the surface of human tumor cell lines (human) (UniProt P34925); assay: flow cytometry, PC3 cells (prostate), isotype matched control mAb, equal amount
[21] = molecular target: human RYK on the surface of human tumor cell lines (human) (UniProt P34925); assay: flow cytometry, SKBR3 cells (breast), isotype matched control mAb, equal amount
[22] = molecular target: human RYK on the surface of human tumor cell lines (human) (UniProt P34925); assay: flow cytometry, T47-D cells (breast), isotype matched control mAb, equal amount
[23] = molecular target: human RYK on the surface of human tumor cell lines (human) (UniProt P34925); assay: flow cytometry, NCI H226 cells (lung), isotype matched control mAb, equal amount
[24] = molecular target: human RYK on the surface of human tumor cell lines (human) (UniProt P34925); assay: flow cytometry, SH-SY5Y cells (brain), isotype matched control mAb, equal amount
[25] = molecular target: human RYK on the surface of human tumor cell lines (human) (UniProt P34925); assay: flow cytometry, SK-MEL-2 cells (skin), isotype matched control mAb, equal amount
[26] = molecular target: human RYK on the surface of human tumor cell lines (human) (UniProt P34925); assay: flow cytometry, SK-MES-1 cells (lung), isotype matched control mAb, equal amount
[27] = molecular target: human RYK on the surface of human tumor cell lines (human) (UniProt P34925); assay: flow cytometry, HS-578T cells (breast), isotype matched control mAb, equal amount
[28] = molecular target: human RYK on the surface of human tumor cell lines (human) (UniProt P34925); assay: flow cytometry, NCI H1155 cells (lung), isotype matched control mAb, equal amount
[29] = molecular target: human RYK on the surface of human tumor cell lines (human) (UniProt P34925); assay: flow cytometry, OVCAR4 cells (ovarian), isotype matched control mAb, equal amount
[30] = molecular target: human RYK on the surface of human tumor cell lines (human) (UniProt P34925); assay: flow cytometry, DU-145 cells (prostate), isotype matched control mAb, equal amount
[31] = molecular target: human RYK on the surface of human tumor cell lines (human) (UniProt P34925); assay: flow cytometry, SK-OV-3 cells (ovarian), isotype matched control mAb, equal amount
[32] = molecular target: human RYK on the surface of human tumor cell lines (human) (UniProt P34925); assay: flow cytometry, CAPAN-1 cells (pancreas), isotype matched control mAb, equal amount
[33] = molecular target: human RYK on the surface of human tumor cell lines (human) (UniProt P34925); assay: flow cytometry, CAPAN-2 cells (pancreas), isotype matched control mAb, equal amount
[34] = molecular target: human RYK on the surface of human tumor cell lines (human) (UniProt P34925); assay: flow cytometry, MOLT4 cells (T-cell ALL), isotype matched control mAb, equal amount
[35] = molecular target: human RYK on the surface of human tumor cell lines (human) (UniProt P34925); assay: flow cytometry, RAJI cells (Burkitt NHL), isotype matched control mAb, equal amount
[36] = molecular target: human RYK on the surface of human tumor cell lines (human) (UniProt P34925); assay: flow cytometry, COLO 829 cells (melanoma), isotype matched control mAb, equal amount
[37] = molecular target: human RYK on the surface of human tumor cell lines (human) (UniProt P34925); assay: flow cytometry, JURKAT cells (T-cell ALL), isotype matched control mAb, equal amount
[38] = molecular target: human RYK on the surface of human tumor cell lines (human) (UniProt P34925); assay: flow cytometry, MDA-MB-231 cells (breast), isotype matched control mAb, equal amount
[39] = molecular target: human RYK on the surface of human tumor cell lines (human) (UniProt P34925); assay: flow cytometry, RAMOS cells (Burkitt NHL), isotype matched control mAb, equal amount
[40] = molecular target: human RYK on the surface of human tumor cell lines (human) (UniProt P34925); assay: flow cytometry, A673 cells (Ewings sarcoma), isotype matched control mAb, equal amount
[41] = molecular target: human RYK on the surface of human tumor cell lines (human) (UniProt P34925); assay: flow cytometry, U937 cells (monocyte cancer), isotype matched control mAb, equal amount
[42] = molecular target: human RYK on the surface of human tumor cell lines (human) (UniProt P34925); assay: flow cytometry, HELA cells (ovarian as printed), isotype matched control mAb, equal amount
[43] = molecular target: human RYK on the surface of human tumor cell lines (human) (UniProt P34925); assay: flow cytometry, NCI H929 cells (melanoma as printed), isotype matched control mAb, equal amount
[44] = molecular target: human RYK on the surface of human tumor cell lines (human) (UniProt P34925); assay: flow cytometry of dissociated primary triple-negative breast cancer PDX cells M0026 (T1), fluorochrome-conjugated isotype control mAb; count 15903

Sequence of human RYK on the surface of human tumor cell lines (human) (P34925 46-607 limits assumed, form in doubt): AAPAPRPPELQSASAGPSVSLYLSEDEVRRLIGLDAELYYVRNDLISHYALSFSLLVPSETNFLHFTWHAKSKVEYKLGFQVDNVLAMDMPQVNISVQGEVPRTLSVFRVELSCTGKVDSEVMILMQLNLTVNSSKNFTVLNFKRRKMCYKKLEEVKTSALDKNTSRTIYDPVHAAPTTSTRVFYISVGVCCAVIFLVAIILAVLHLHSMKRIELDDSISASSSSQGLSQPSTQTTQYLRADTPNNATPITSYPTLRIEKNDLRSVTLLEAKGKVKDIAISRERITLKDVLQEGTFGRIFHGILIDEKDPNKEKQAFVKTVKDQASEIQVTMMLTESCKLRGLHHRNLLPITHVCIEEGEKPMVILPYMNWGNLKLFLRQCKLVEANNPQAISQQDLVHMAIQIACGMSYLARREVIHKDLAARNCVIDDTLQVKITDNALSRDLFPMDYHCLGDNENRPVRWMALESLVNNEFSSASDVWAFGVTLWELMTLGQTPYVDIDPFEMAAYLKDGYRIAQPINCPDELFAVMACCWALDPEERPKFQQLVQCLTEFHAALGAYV

isotype matched control mAb (antibody)
MFI [1]: 7.4
MFI [2]: 5.6
MFI [3]: 2.8
MFI [4]: 4.3
MFI [5]: 4.8
MFI [6]: 107
MFI [7]: 23.3
MFI [8]: 58
MFI [9]: 5.7
MFI [10]: 126
MFI [11]: 100
MFI [12]: 229
MFI [13]: 3.9
MFI [14]: 5.2
MFI [15]: 7.6
MFI [16]: 5.6
MFI [17]: 30.7
MFI [18]: 72.6
MFI [19]: 197
MFI [20]: 2.8
MFI [21]: 73.9
MFI [22]: 25.7
MFI [23]: 6
MFI [24]: 4.1
MFI [25]: 7
MFI [26]: 156
MFI [27]: 7.3
MFI [28]: 6.2
MFI [29]: 61
MFI [30]: 3.2
MFI [31]: 5.6
MFI [32]: 86.9
MFI [33]: 4.7
MFI [34]: 5.1
MFI [35]: 6.4
MFI [36]: 6.9
MFI [37]: 5.7
MFI [38]: 8.3
MFI [39]: 6.1
MFI [40]: 52
MFI [41]: 6.7
MFI [42]: 6.1
MFI [43]: 43.8
Median : Comp-Alexa Fluor 647-A [44]: 39.9
